Here are results for five molecules from patent publication US20220041723A1 (BIOINVENT INTERNATIONAL, published 2022).

Numbering of substitutions follows the chain as printed.

Assay [1] addresses T1, recombinant human CD28-Fc protein (R&D Systems) (human, UniProt P10747 19-152).
T1 construct: also called human CD28 protein; not shown: Fc part of the bought fusion protein, not described
Description: ELISA, CD28-Fc coated at 1 pmol/well. On the technique in general: An ELISA detects its analyte on a solid surface through an enzyme-linked reagent.

In assay [2] the target is T2, recombinant human CTLA-4-Fc protein (R&D Systems) (human, UniProt P16410 37-162).
T2 construct: also called rhCTLA-4-Fc; human CTLA-4 protein; not shown: Fc part of the bought fusion protein, not described
The experiment in a line: ELISA, CTLA-4-Fc coated, IgG titrated.

Assay [3] has as its target T3, human CTLA-4 expressed on cells (293T cells stably transfected with human CTLA-4); in vitro-activated human … (human, UniProt P16410 36-223).
T3 construct: whole, on cells; also called hCTLA-4
The experiment in a line: flow cytometry on hCTLA-4-transfected 293T cells. Background: In flow cytometry, cells or beads pass a laser one at a time.

The target in assay [4] is T2, recombinant human CTLA-4-Fc protein …. The experiment in a line: competitive flow cytometry: soluble rhCTLA-4-Fc blocks staining of activated human CD4+ T cells.
In assay [5] the target is T4, recombinant mouse CD28-Fc protein (R&D Systems) (mouse, UniProt P31041 20-149).
T4 construct: not shown: Fc part of the bought fusion protein, not described
The experiment in a line: ELISA, mouse CD28-Fc coated at 0.3 pmol/well.

In assay [6] the target is T5, recombinant mouse CTLA-4-Fc protein (R&D Systems) (mouse, UniProt P09793 36-162).
T5 construct: not shown: Fc part of the bought fusion protein, not described
The experiment in a line: ELISA, mouse CTLA-4-Fc coated at 0.3 pmol/well, IgG titrated.

The target of assay [7] is T6, recombinant mouse CTLA-4-Fc protein (Sino Biological Inc.) (mouse, UniProt P09793 36-162).
T6 construct: also called murine CTLA-4; not shown: Fc part of the bought fusion protein, not described
Description: ligand blocking ELISA on coated mouse CTLA-4-Fc.

For assay [8], the target named is T2, recombinant human CTLA-4-Fc protein …. Description: ELISA, CTLA-4-Fc coated at 1 pmol/well, IgG titrated.

B1: 2-C06 (antibody, V domains shown)
VH: EVQLLESGGGLVQPGGSLRLSCAASGFTFSSYAMSWVRQAPGKGLEWVSGISGSGGYIHYADSVKGRFTISRDNSKNTLYLQMNSLRAEDTAVYYCATYSSGLHDAFDIWGQGTLVTVSS
VL: QSVLTQPPSASGTPGQRVTISCTGSSSNIGAGYDVHWYQQLPGTAPKLLIYDNNKRPSGVPDRFSGSKSGTSASLAISGLRSEDEADYYCAAWDDSLNGWVFGGGTKLTVLG
notes: also called 2-006
As to B1, the binding result in assay [1] was “no binding (tested: titrated 66 nM to 0.3 pM)”; in assay [2], “binds”; in assay [3], “binds”.

B2: 4-E03 (antibody, human IgG1, lambda, V domains shown)
VH: EVQLLESGGGLVQPGGSLRLSCAASGFTFSDYYMSWVRQAPGKGLEWVSGISWSSRDKGYADSVKGRFTISRDNSKNTLYLQMNSLRAEDTAVYYCTTDLARYWGQGTLVTVSS
VL: B1 VL with D52G, N54D, K55N, A92V, W100V
notes: also called 4-E03 mAb; 4-E03 monoclonal antibody
As for B2, the binding result is “no binding (tested: titrated 66 nM to 0.3 pM)” in assay [1], “binds” in assay [2] and “binds” in assay [3].

B3: 5-B07 (antibody, V domains shown)
VH: EVQLLESGGGLVQPGGSLRLSCAASGFTFSSYSMNWVRQAPGKGLEWVSAISGSGGSTYYADSVKGRFTISRDNSKNTLYLQMNSLRAEDTAVYYCARDRVEMNQWLADWGQGTLVTVSS
VL: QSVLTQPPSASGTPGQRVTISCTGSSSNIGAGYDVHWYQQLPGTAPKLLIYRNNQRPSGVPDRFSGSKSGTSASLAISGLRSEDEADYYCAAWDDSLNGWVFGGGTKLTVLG
notes: also called 5-B07 (human IgG format)
B3: the binding result in assay [1] is “no binding (tested: titrated 66 nM to 0.3 pM)”; in assay [4], “binds”; in assay [3], “binds”; in assay [5], “no binding (tested: titrated 66 nM to 0.3 pM)”; in assay [6] it was “binds”.

B4: m5-B07 (antibody clone 5-B07 in mIgG2a format) (antibody, V domains shown)
VH: B3 VH
VL: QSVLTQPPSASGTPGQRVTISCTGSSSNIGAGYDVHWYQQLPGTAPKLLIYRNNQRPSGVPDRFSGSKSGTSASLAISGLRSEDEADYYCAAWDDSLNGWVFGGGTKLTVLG
notes: also called 5-B07 in mouse IgG2a format; m5-B07 mAb
As for B4, the binding result in assay [7] is recorded as “binds”.

B5: 2-F09 (antibody, V domains shown)
VH: EVQLLESGGGLVQPGGSLRLSCAASGFTFKAYSMSWIRQAPGKGLEWVSGISNTGGSTDFADSVKGRFTISRDNSKNTLYLQMNSLRAEDTAMYYCARLGYSGYDDRGMDVWGQGTLVTVSS
VL: QSVLTQPPSASGTPGQRVTISCSGSSSNIGSNYVYWYQQLPGTAPKLLIYGNSNRPSGVPDRFSGSKSGTSASLAISGLRSEDEADYYCQSYDSSLSGPVVFGGGTKLTVLG
Take B5: the binding result in assay [8] and in assay [3] was “binds” each time.
